B1: Enzyme of Strain N75: purified polypeptide having α-isomaltosylglucosaccharide-forming enzyme activity from Bacillus globisporus N75 (Experiment 2-3); contains SEQ ID NO: 2 (protein)
chain: HVSALGNLLSSAVTGDTLTLTIDNGAEPNDDILVLQAVQNGILKVDYRPNGVAPSADTPMLDPNKTWPSIGAVINTASNPMTITTPAMKIEIAKNPVRLTVKKPDGTALLWEPPTGGVFSDGVRFLHGTGDNMYGIRSFNAFDSGGDLLRNSSTQAARAGDQGNSGGPLIWSTAGYGVLVDSDGGYPFTDEATGKLEFYYGGTPPEGRRYTKQDVEYYIMLGTPKEIMSGVGEITGKPPMLPKWSLGFMNFEWDLNEAELKNHVDTYRAKNIPIDGYAIDFDWKKYGENNYGEFAWNTANFPSAATTALKSQMDAKGIKMIGITKPRIATKDFSNNPTVQGTDAASGGYFYPGHSEYKDYFIPVFVRSIDPYNPAARSWFWNHSKDAFDKGIVGWWNDETDAVSSGGASYWFGNFTTGHMSQALYEGQRAYTSNAQRVWQTARTFYPGAQRYATTLWSGDIGIQYTKGERINWAAGMQEQRAVMLSSINNGQVKWGMDTGGFNQQDGTTNNPNPDLYARWMQFSALTPVFRVHGNNHQQRQPWYYGSTAEEASKEALQLRYSLIPYMYAYERSAYENGNGLVRPLMQEYPADANAKNYLDAWMFGDWLLAAPVVEKQQTSKEIYLPAGTWIDYNRGTVLTGGQKISYAVNPDTLTDIPLFIKKGAIIPSQKVQDYVGQAPVQTVDVDVFPNTAQSSFTYYDDDGSSYNYESGAYFKQLMTAQDNGSGALSFTLGAKTGTYSPALQSYIVKLHGAAGASVTSNGAALASYASLQALKASASEGWAKGKDIYGDVTYVKLSAGAAAAKAIAVTGNSPVSVADVQYEAEEASLSGNTTATKATVNTNHAGYTGSGFVDGLSNPGAAVTFYPKVKTGGDYNVSLRYANSTGAAKSVSIFVNGKRVKSTSLANLPNWDTWGTQAETLPLTAGTNVVTYKFYSDAGDTGSVNLDNITVPFAPAIGKYEAESAELSGGSTVNQNHWFYSGTAFVDGLTAPGAQVKYTVNAPAAGSYQIALRYANGTGAAKTLSTYVNGTKLGQTAFASPGGNWNVWQDSVQTVALAAGTNTIAFKYDAGDSGSGSVNLDRLLLSAAAPGVPVSEQNLLDNGGFERDPSQSSNWTEWHPASQAIAYGIDSGSGMNPPESPWAGDKRAYFYAAGPYQQSIHQTVSVPVNNAKYKFEAWVLLKNTTPTTARVEIQNYGGSPIFTNISKDGVWKYISVSDIQVTNGQIDIGFYVDSPGGTTLHIDDVRVTKQ
modifications: Bacillus globisporus N75
B2: Enzyme of Strain C11: purified polypeptide having α-isomaltosylglucosaccharide-forming enzyme activity from Bacillus globisporus C11 (Experiment 1-3); contains SEQ ID NO: 1 (protein)
chain: YVSSLGNLISSSVTGDTLTLTVDNGAEPSDDLLIVQAVQNGILKVDYRPNSITPSAKTPMLDPNKTWSAVGATINTTANPMTITTSNMKIEITKNPVRMTVKKADGTTLFWEPSGGGVFSDGVRFLHATGDNMYGIRSFNAFDSGGDLLRNSSNHAAHAGEQGDSGGPLIWSTAGYGLLVDSDGGYPYTDSTTGQMEFYYGGTPPEGRRYAKQNVEYYIMLGTPKEIMTDVGEITGKPPMLPKWSLGFMNFEWDTNQTEFTNNVDTYRAKNIPIDAYAFDYDWKKYGETNYGEFAWNTTNFPSASTTSLKSTMDAKGIKMIGITKPRIVTKDASANVTTQGTDATNGGYFYPGHNEYQDYFIPVTVRSIDPYNANERAWFWNHSTDALNKGIVGWWNDETDKVSSGGALYWFGNFTTGHMSQTMYEGGRAYTSGAQRVWQTARTFYPGAQRYATTLWSGDIGIQYNKGERINWAAGMQEQRAVMLSSVNNGQVKWGMDTGGFNQQDGTTNNPNPDLYARWMQFSALTPVFRVHGNNHQQRQPWYFGSTAEEASKEAIQLRYSLIPYMYAYERSAYENGNGLVRPLMQAYPTDAAVKNYTDAWMFGDWLLAAPVVDKQQTSKDIYLPSGSWIDYARGNAITGGQTIRYSVNPDTLTDMPLFIKKGAIIPTQKVQDYVGQASVTSVDVDVFPDTTQSSFTYYDDDGASYNYESGTYFKQNMTAQDNGSGSLSFTLGAKSGSYTPALQSYIVKLHGSAGTSVTNNSAAMTSYASLEALKAAAGEGWATGKDIYGDVTYVKVTAGTASSKSIAVTGVAAVSATTSQYEAEDASLSGNSVAAKASINTNHTGYTGTGFVDGLGNDGAGVTFYPKVKTGGDYNVSLRYANASGTAKSVSIFVNGKRVKSTSLANLANWDTWSTQSETLPLTAGVNVVTYKYYSDAGDTGNVNIDNITVPFAPIIGKYEAESAELSGGSSLNTNHWYYSGTAFVDGLSAVGAQVKYNVNVPSAGSYQVALRYANGSAATKTLSTYINGAKLGQTSFTSPGTNWNVWQDNVQTVTLNAGANTIAFKYDAADSGNINVDRLLLSTSAAGTPVSEQNLLDNPGFERDTSQTNNWIEWHPGTQAVAFGVDSGSTTNPPESPWSGDKRAYFFAAGAYQQSIHQTISVPVNNVKYKFEAWVRMKNTTPTTARAEIQNYGGSAIYANISNSGVWKYISVSDIMVTNGQIDVGFYVDSPGGTTLHIDDVRVTKQ
modifications: Bacillus globisporus C11

What was measured:
[1] = Test on reducing-power formation; format: biochemical; details: 1% (w/v) maltotetraose, 0.25 unit/g substrate, 35° C., pH 6.0 (pH 8.4 for A19)
Description: The following test was carried out to study whether the polypeptide having α-isomaltosylglucosaccharide-forming enzyme activity had the ability of forming reducing-power or not. To a 1% (w/v) aqueous solution of maltotetraose as a substrate was added 0.25 unit/g substrate, d.s.b., of either of purified polypeptide specimen of α-isomaltosylglucosaccharide-forming enzyme from Bacillus globisporus C11 obtained by the method in Experiment 1-3, Bacillus globisporus N75 obtained by the method in Experiment2-3, or Arthrobacter globiformis A19 obtained by the method in Experiment 3-3, and incubated at 35° C. and at pH 6.0, except that pH 8.4 was used for the enzyme from Arthrobacter globiformis A19. During the reaction, a portion of each reaction mixture was sampled at prescribed time intervals and measured for reducing power after keeping at 100° C. for 10 minutes to stop the enzymatic reaction. Before and after the enzymatic reaction, the reducing sugar content and total sugar content were respectively quantified by the Somogyi-Nelson method and anthrone-sulfuric acid method. The percentage of forming reducing power was calculated by the following equation: Percentage of forming reducing power (%)=(AR/AT−BR/BT)×100 Equation: • AR: Reducing sugar content after enzymatic reaction. • AT: Total sugar content after enzymatic reaction. • BR: Reducing sugar content before enzymatic reaction. • BT: Total sugar content before enzymatic reaction.

[2] = Thermal stability and pH stability (residual enzyme activity); format: physicochemical; details: 20 mM acetate buffer pH 6.0, 60 minutes
Description: The thermal stability of the polypeptide having α-isomaltosylglucosaccharide-forming enzyme activity was determined by incubating the testing polypeptide solution in 20 mM acetate buffer, pH6.0 (in the case of the polypeptide from a strain A19, 20 m M Glycine-NaOH buffer, pH 8.0) at prescribed temperatures for 60 minutes in the presence or absence of 1 mM Ca^2+, cooling with water the resulting polypeptide solutions, and assaying the residual enzyme activity of each solution. The pH stability of the polypeptide having α-isomaltosylglucosaccharide-forming enzyme activity was determined by keeping the testing polypeptide solutions in 50 mM buffer having prescribed pHs at 4° C. for 24 hours, adjusting the pH of each solution to 6.0 (in the case of the polypeptide from a strain A19, pH 8.0), and assaying the residual enzyme activity of each solution. […] The thermal stability of the polypeptide having α-isomaltosylglucosaccharide-forming enzyme activity from a strain C11 was up to about 40° C. (in the absence of Ca^2+) and about 45° C. (in the presence of Ca^2+), and pH stability of about 5.0 to about 10.0. The thermal stability of the polypeptide having α-isomaltosylglucosaccharide-forming enzyme activity from a strain N75 was up to about 45° C. (in the absence of Ca^2+) and about 50° C. (in the presence of Ca^2+), and pH stability of about 5.0 to about 9.0. The thermal stability of the polypeptide having α-isomaltosylglucosaccharide-forming enzyme activity from a strain A19 was up to about 55° C. (in the absence of Ca^2+) and about 60° C. (in the presence of Ca^2+), and pH stability of about 5.0 to about 9.0.

[3] = Effect of temperature and pH on α-isomaltosylglucosaccharide-forming enzyme activity; format: biochemical; details: for Optimum temperature: pH 6.0 for 60 minutes; for Optimum pH: incubated at 35° C. for 60 minutes
Description: The two types of enzymatic activities described above were measured as following. The activity of α-isomaltosylglucosaccharide-forming enzyme was measured by the following assay: A substrate solution was prepared by dissolving maltotriose in 100 mM acetate buffer (pH 6.0) to give a concentration of 2% (w/v). A reaction mixture was prepared by mixing 0.5 ml of the substrate solution and 0.5 ml of an enzyme solution, and incubated at 35° C. for 60 minutes. After stopping the reaction by boiling for 10 minutes, the amount of maltose formed in the reaction mixture was determined by high-performance liquid chromatography (HPLC). One unit of α-isomaltosylglucosaccharide-forming activity was defined as the amount of the enzyme that forms one μmole of maltose per minute under the above conditions. HPLC was carried out using “SHODEX KS-801 column”, Showa Denko K. K., Tokyo, Japan, at a column temperature of 60° C. and a flow rate of 0.5 ml/minutes of water, and using “RI-8012”, a differential refractometer commercialized by Tosoh Corporation, Tokyo, Japan.
The effect of temperature and pH on the α-isomaltosylglucosaccharide-forming enzyme activity was examined in accordance with the assay for the α-isomaltosylglucosaccharide-forming enzyme activity under various temperature and pH conditions. The effect of temperature was conducted in the presence or absence of 1 mM Ca^2+. […] The optimum temperature of the polypeptide having α-isomaltosylglucosaccharide-forming enzyme activity from a strain C11 was about 45° C. (in the absence of Ca^2+) and about 50° C. (in the presence of Ca^2+) when incubated at pH 6.0 for 60 minutes, and the optimum pH was about 6.0 when incubated at 35° C. for 60 minutes. The optimum temperature of the polypeptide having α-isomaltosylglucosaccharide-forming enzyme activity from a strain N75 was about 50° C. (in the absence of Ca^2+) and about 55° C. (in the presence of Ca^2+) when incubated at pH 6.0 for 60 minutes, and the optimum pH was about 6.0 when incubated at 35° C. for 60 minutes. The optimum temperature of the polypeptide having α-isomaltosylglucosaccharide-forming enzyme activity from a strain A19 was about 60° C. (in the absence of Ca^2+) and about 65° C. (in the presence of Ca^2+) when incubated at pH 8.4 for 60 min, and the optimum pH was about 8.4 when incubated at 35° C. for 60 minutes.

[4] = Isoelectric point by isoelectrophoresis (2% ampholine gel); format: physicochemical; details: gel containing 2% (w/v) ampholine
Text: Purified specimens of the polypeptide having α-isomaltosylglucosaccharide-forming enzyme activity from Bacillus globisporus C11 obtained by the method in Experiment 1-3, Bacillus globisporus N75 obtained by the method in Experiment 2–3, and Arthrobacter globiformis A19 obtained by the method in Experiment 3-3 were subjected to isoelectrophoresis using a gel containing 2% (w/v) ampholine commercialized by Amersham Biosciences K. K., Tokyo, Japan (old name, Amersham Pharmacia Biotech), and then measured pHs of protein bands and gel to determine their isoelectric points.

| Molecule | Percentage of forming reducing power ([1]; reaction time 0 hour) | Percentage of forming reducing power ([1]; reaction time 1 hour) | Percentage of forming reducing power ([1]; reaction time 2 hours) | Percentage of forming reducing power ([1]; reaction time 4 hours) | Percentage of forming reducing power ([1]; reaction time 8 hours) | Thermal stability ([2]; in the presence of 1 mM Ca2+) | Optimum temperature ([3]; in the absence of Ca2+) | Optimum temperature ([3]; in the presence of 1 mM Ca2+) | Optimum pH [3] | Isoelectric point [4] | Thermal stability ([2]; in the absence of Ca2+) |
| --- | --- | --- | --- | --- | --- | --- | --- | --- | --- | --- | --- |
| B1 | 0.0% | 0.1% | 0.0% | 0.0% | 0.1% | ≤ 50 °C | about 50 °C | about 55 °C | about 6.0 | about 7.3±0.5 |  |
| B2 | 0.0% | 0.1% | 0.0% | 0.1% | 0.0% |  | about 45 °C | about 50 °C | about 6.0 | about 5.2±0.5 | up to 40 °C |

Source: patent US7211422B2, “Polypeptide having α-isomaltosylglucosaccharide synthase activity” (Kabushiki Kaisha Hayashibara Seibutsu Kagaku Kenkyujo, priority 2001, dated 2007)
